Experimental data reported in PMC13544220, “Glycemic and bodyweight effects of GIPR coding variation reflect differences in surface expression and intrinsic functional impairment” (Science Advances, 2026).
Numbering of substitutions follows the chain as printed. Names and notes keep the numbering of the source.

Assays:
Format in all cases: cell-based, human
[1] = system: wild-type and variant SNAP-GIPR; assay: cADDis cAMP imaging in AD293 cells, ensemble, expression-matched and per decile; conditions: Fig S3F, cADDis, mean;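 further: Ensemble cells as % of IBMX/FSK response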
How it was run: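 AD293 cells reverse-transfected with wild-type or variant SNAP-GIPR plus cADDis Green Up sensor, variants run in parallel. After 24 h, surface receptor labelled with SNAP-Surface Alexa Fluor 647 (500 nM); single-cell cADDis fluorescence imaged at 37 °C in KRBH, 6 mM glucose, 0.1% BSA. Responses given ensemble, expression-matched by wild-type deciles, or per own decile.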

[2] = system: wild-type and variant SNAP-GIPR; assay: Single-concentration GIP cAMP response by HTRF in AD293 cells; conditions: Fig S3F, HTRF, mean;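 further: ratio to experiment-wide average response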
Description: (§1) All variants were tested in parallel on each occasion to control for transfection efficiency differences between experiments.

[3] = system: wild-type and variant SNAP-GIPR; assay: Surface SNAP-GIPR expression (SNAP-tag labelling) in INS-1 cells; conditions: Fig 4G; Mean
How it was run: (§2)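 Read-out: whole-cell fluorescence of surface-only SNAP label (Alexa Fluor 647, 500 nM, 10 min, RT), wide-field 20X, several FOVs per well. Flat-field corrected, phase-contrast masked, nontransfected-well signal subtracted; normalized to experiment mean or wild-type.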

[4] = system: wild-type and variant SNAP-GIPR; assay: Constitutive and agonist-mediated internalization, reversible SNAP-tag labelling, INS-1 cells; parameters: key to Internalisation, GIP-only / Internalisation, Vehicle / Internalisation, +GIP: % internalization: residual fluorescence after Mesna vs pre-Mesna; conditions: Mean; for +GIP internalisation (100 nM) / GIP-specific internalisation (100 nM) / Constitutive internalisation (100 nM): Fig 4G; for +GIP internalisation (100 nM) / GIP-specific internalisation (100 nM): GIP 100 nM; for Internalisation, +GIP / Internalisation, GIP-only / Internalisation, Vehicle: Fig S4C, INS-1
How it was run: (§3)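 Percentage internalization is read as the fraction of specific SNAP fluorescence that survives Mesna stripping, compared with the image taken before Mesna. Wells are imaged in TNE buffer at pH 8.6 and again after 10 min.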

[5] = system: wild-type and variant SNAP-GIPR; assay: Single-concentration GIP cAMP response by HTRF in INS-1 cells; conditions: Fig S3E, mean
Description: as §1

[6] = system: wild-type and variant SNAP-GIPR; assay: Constitutive and agonist-mediated internalization, reversible SNAP-tag labelling, AD293 cells; parameters: key to Internalisation, Vehicle / Internalisation, +GIP / Internalisation, GIP-only: % internalization: residual fluorescence after Mesna vs pre-Mesna; Surface expression: unit not given here; conditions: Mean; for +GIP internalisation (100 nM) / GIP-specific internalisation (100 nM) / Constitutive internalisation (100 nM) / Surface expression: Fig 4E; for +GIP internalisation (100 nM) / GIP-specific internalisation (100 nM): GIP 100 nM; for Internalisation, +GIP / Internalisation, GIP-only / Internalisation, Vehicle: Fig S4C, AD293
How it was run: as §3

[7] = system: wild-type and variant SNAP-GIPR; assay: Surface SNAP-GIPR expression (SNAP-tag labelling) in AD293 cells; conditions: for AD293 Surface: Fig S3E, mean; for Surface SNAP-GIPR expression: sheet Fig 1C;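 on all read-outs here: scaled to the experimental average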
How it was run: as §2

[8] = column repeated, paired with cAMP 100 nM

B1: S64A (protein, UniProt P48546 22-466, looked up, variant S64A)
Gastric inhibitory …: RAETGSKGQTAGELYQRWERYRRECQETLAAAEPPSGLACNGAFDMYVCWDYAAPNATARASCPWYLPWHHHVAAGFVLRQCGSDGQWGLWRDHTQCENPEKNEAFLDQRLILERLQVMYTVGYSLSLATLLLALLILSLFRRLHCTRNYIHINLFTSFMLRAAAILSRDRLLPRPGPYLGDQALALWNQALAACRTAQIVTQYCVGANYTWLLVEGVYLHSLLVLVGGSEEGHFRYYLLLGWGAPALFVIPWVIVRYLYENTQCWERNEVKAIWWIIRTPILMTILINFLIFIRILGILLSKLRTRQMRCRDYRLRLARSTLTLVPLLGVHEVVFAPVTEEQARGALRFAKLGFEIFLSSFQGFLVSVLYCFINKEVQSEIRRGWHHCRLRRSLGEEQRQLPERAFRALPSGSGPGEVPTSRGLSSGTLPGPGNEASRELESYC
- AD293 100 pM cADDis [1]: 21.6969
- AD293 100 nM cADDis [1]: 34.42
- AD293 100 pM HTRF [2]: 0.1562
- AD293 100 nM HTRF [2]: 1.061
- Surface expression [3]: 0.6025
- +GIP internalisation (100 nM) [4]: 0.3425
- GIP-specific internalisation (100 nM) [4]: 0.05503
- Constitutive internalisation (100 nM) [4]: 0.2874
- Internalisation, +GIP [4]: 52.768
- Internalisation, GIP-only [4]: 8.16
- Internalisation, Vehicle [4]: 44.608
- INS-1 cAMP (100 nM) [5]: 1.062
- +GIP internalisation (100 nM) [6]: 0.3536
- GIP-specific internalisation (100 nM) [6]: 0.06262
- Constitutive internalisation (100 nM) [6]: 0.291
- Surface expression [6]: 0.5133
- Internalisation, +GIP [6]: 68.8859
- Internalisation, GIP-only [6]: 12.125
- Internalisation, Vehicle [6]: 56.7609
- AD293 Surface [7, 8]: 0.5377
- AD293 Surface ([7]; paired with cAMP 100 pM): 0.5377
- Surface SNAP-GIPR expression ([7]; replicate 1): 0.5948
- Surface SNAP-GIPR expression ([7]; replicate 2): 0.3831
- Surface SNAP-GIPR expression ([7]; replicate 3): 0.1917
- Surface SNAP-GIPR expression ([7]; replicate 4): 0.03284
- Surface SNAP-GIPR expression ([7]; replicate 5): 0.714
- Surface SNAP-GIPR expression ([7]; replicate 6): 0.449
- Surface SNAP-GIPR expression ([7]; replicate 7): 0.6736
- Surface SNAP-GIPR expression ([7]; replicate 8): 0.7024
- Surface SNAP-GIPR expression ([7]; replicate 9): 0.4646
- Surface SNAP-GIPR expression ([7]; replicate 10): 0.5884
- Surface SNAP-GIPR expression ([7]; replicate 11): 0.4154
- Surface SNAP-GIPR expression ([7]; replicate 12): 0.584
- Surface SNAP-GIPR expression ([7]; replicate 13): 0.53
- Surface SNAP-GIPR expression ([7]; replicate 14): 0.7656
- Surface SNAP-GIPR expression ([7]; replicate 15): 0.5316
- Surface SNAP-GIPR expression ([7]; replicate 16): 0.5279
- Surface SNAP-GIPR expression ([7]; replicate 17): 0.5713
- Surface SNAP-GIPR expression ([7]; replicate 18): 0.5329
- Surface SNAP-GIPR expression ([7]; replicate 19): 0.5212
- Surface SNAP-GIPR expression ([7]; replicate 20): 0.6932
- Surface SNAP-GIPR expression ([7]; replicate 21): 0.7203
- Surface SNAP-GIPR expression ([7]; replicate 22): 0.5804
- Surface SNAP-GIPR expression ([7]; replicate 23): 0.6278
- Surface SNAP-GIPR expression ([7]; replicate 24): 0.5394
- Surface SNAP-GIPR expression ([7]; replicate 25): 0.4918
- Surface SNAP-GIPR expression ([7]; replicate 26): 0.6002
- Surface SNAP-GIPR expression ([7]; replicate 27): 0.6328
- Surface SNAP-GIPR expression ([7]; replicate 28): 0.5573
- Surface SNAP-GIPR expression ([7]; replicate 29): 0.4754
- Surface SNAP-GIPR expression ([7]; replicate 30): 0.4312
- Surface SNAP-GIPR expression ([7]; replicate 31): 0.4378
- Surface SNAP-GIPR expression ([7]; replicate 32): 0.606
- Surface SNAP-GIPR expression ([7]; replicate 33): 0.6793
- Surface SNAP-GIPR expression ([7]; replicate 34): 0.4646
- Surface SNAP-GIPR expression ([7]; replicate 35): 0.5832
- Surface SNAP-GIPR expression ([7]; replicate 36): 0.4138
- Surface SNAP-GIPR expression ([7]; replicate 37): 0.5632
- Surface SNAP-GIPR expression ([7]; replicate 38): 0.4283
- Surface SNAP-GIPR expression ([7]; replicate 39): 0.6589
- Surface SNAP-GIPR expression ([7]; replicate 40): 0.5446
- Surface SNAP-GIPR expression ([7]; replicate 41): 0.5428

B2: R217L (protein, UniProt P48546 22-466, looked up, variant R217L)
Gastric inhibitory …: B1 Gastric inhibitory … with A43S, R196L
- AD293 100 pM cADDis [1]: 17.6282
- AD293 100 nM cADDis [1]: 34.7
- AD293 100 pM HTRF [2]: 0.09215
- AD293 100 nM HTRF [2]: 1.142
- Surface expression [3]: 0.4654
- +GIP internalisation (100 nM) [4]: 0.2239
- GIP-specific internalisation (100 nM) [4]: 0.03772
- Constitutive internalisation (100 nM) [4]: 0.1862
- Internalisation, +GIP [4]: 51.715
- Internalisation, GIP-only [4]: 8.862
- Internalisation, Vehicle [4]: 42.8533
- INS-1 cAMP (100 nM) [5]: 1.196
- +GIP internalisation (100 nM) [6]: 0.224
- GIP-specific internalisation (100 nM) [6]: 0.04046
- Constitutive internalisation (100 nM) [6]: 0.1836
- Surface expression [6]: 0.4265
- Internalisation, +GIP [6]: 55.082
- Internalisation, GIP-only [6]: 10.4684
- Internalisation, Vehicle [6]: 44.6136
- AD293 Surface [7, 8]: 0.4259
- AD293 Surface ([7]; paired with cAMP 100 pM): 0.4259
- Surface SNAP-GIPR expression ([7]; replicate 1): 0.4201
- Surface SNAP-GIPR expression ([7]; replicate 2): 0.7236
- Surface SNAP-GIPR expression ([7]; replicate 3): 0.824
- Surface SNAP-GIPR expression ([7]; replicate 4): 0.3234
- Surface SNAP-GIPR expression ([7]; replicate 5): 0.3781
- Surface SNAP-GIPR expression ([7]; replicate 6): 0.5304
- Surface SNAP-GIPR expression ([7]; replicate 7): 0.6162
- Surface SNAP-GIPR expression ([7]; replicate 8): 0.6634
- Surface SNAP-GIPR expression ([7]; replicate 9): 0.3807
- Surface SNAP-GIPR expression ([7]; replicate 10): 0.4129
- Surface SNAP-GIPR expression ([7]; replicate 11): 0.358
- Surface SNAP-GIPR expression ([7]; replicate 12): 0.3678
- Surface SNAP-GIPR expression ([7]; replicate 13): 0.04028
- Surface SNAP-GIPR expression ([7]; replicate 14): 0.3517
- Surface SNAP-GIPR expression ([7]; replicate 15): 0.3652
- Surface SNAP-GIPR expression ([7]; replicate 16): 0.3999
- Surface SNAP-GIPR expression ([7]; replicate 17): 0.3288
- Surface SNAP-GIPR expression ([7]; replicate 18): 0.3912
- Surface SNAP-GIPR expression ([7]; replicate 19): 0.3034
- Surface SNAP-GIPR expression ([7]; replicate 20): 0.3764
- Surface SNAP-GIPR expression ([7]; replicate 21): 0.4615
- Surface SNAP-GIPR expression ([7]; replicate 22): 0.364
- Surface SNAP-GIPR expression ([7]; replicate 23): 0.3963
- Surface SNAP-GIPR expression ([7]; replicate 24): 0.3543
- Surface SNAP-GIPR expression ([7]; replicate 25): 0.4738
- Surface SNAP-GIPR expression ([7]; replicate 26): 0.4835
- Surface SNAP-GIPR expression ([7]; replicate 27): 0.4338
- Surface SNAP-GIPR expression ([7]; replicate 28): 0.5117
- Surface SNAP-GIPR expression ([7]; replicate 29): 0.4222
- Surface SNAP-GIPR expression ([7]; replicate 30): 0.4733
- Surface SNAP-GIPR expression ([7]; replicate 31): 0.4841
- Surface SNAP-GIPR expression ([7]; replicate 32): 0.4011
- Surface SNAP-GIPR expression ([7]; replicate 33): 0.4465
- Surface SNAP-GIPR expression ([7]; replicate 34): 0.4033
- Surface SNAP-GIPR expression ([7]; replicate 35): 0.2194
- Surface SNAP-GIPR expression ([7]; replicate 36): 0.2502
- Surface SNAP-GIPR expression ([7]; replicate 37): 0.3794
- Surface SNAP-GIPR expression ([7]; replicate 38): 0.4678
- Surface SNAP-GIPR expression ([7]; replicate 39): 0.4904
- Surface SNAP-GIPR expression ([7]; replicate 40): 0.4789
- Surface SNAP-GIPR expression ([7]; replicate 41): 0.5101
